Measured values from publication PMC8477213.
Substitutions are numbered along the chain they refer to. Where two headings read alike, the source gives them in different places.

Experiments:
Tnp26 WT [1] = target: T1, Tnp26 WT (IS26 (bacterial insertion sequence; …, UniProt A0A2K9V0L7 1-234, G117R); test: EMSA
T1 sequence: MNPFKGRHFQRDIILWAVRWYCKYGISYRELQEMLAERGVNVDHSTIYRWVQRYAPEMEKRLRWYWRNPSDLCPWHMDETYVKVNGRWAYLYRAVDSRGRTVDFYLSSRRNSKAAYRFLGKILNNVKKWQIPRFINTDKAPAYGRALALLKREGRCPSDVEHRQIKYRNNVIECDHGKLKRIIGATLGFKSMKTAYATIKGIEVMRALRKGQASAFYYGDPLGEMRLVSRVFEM

Tnp26 W50A = target: T2, Tnp26 W50A (IS26 (bacterial insertion sequence; …, UniProt A0A2K9V0L7 1-234, W50A;G117R); test: EMSA
T2 sequence: T1 sequence with W50A

Tnp26 R49A = target: T3, Tnp26 R49A (IS26 (bacterial insertion sequence; …, UniProt A0A2K9V0L7 1-234, R49A;G117R); test: EMSA
T3 sequence: T1 sequence with R49A

Tnp26 F4A = target: T4, Tnp26 F4A (IS26 (bacterial insertion sequence; …, UniProt A0A2K9V0L7 1-234, F4A;G117R); test: EMSA
T4 sequence: T1 sequence with F4A

Tnp26 F9A = target: T5, Tnp26 F9A (IS26 (bacterial insertion sequence; …, UniProt A0A2K9V0L7 1-234, F9A;G117R); test: EMSA
T5 sequence: T1 sequence with F9A

Tnp26 1-56 [2] = target: T6, Tnp26 1-56 (IS26 (bacterial insertion sequence; …, UniProt A0A2K9V0L7 1-56); test: EMSA
T6 sequence: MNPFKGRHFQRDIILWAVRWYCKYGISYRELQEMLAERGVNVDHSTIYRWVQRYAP

Tnp26 Y54A = target: T7, Tnp26 Y54A (IS26 (bacterial insertion sequence; …, UniProt A0A2K9V0L7 1-234, Y54A;G117R); test: MST
T7 sequence: T1 sequence with Y54A

Tnp26 WT [3] = target: T1, Tnp26 WT; test: MST
Tnp26 1-56 [4] = target: T6, Tnp26 1-56; test: EMSA; remark: listed apart in the source
Tnp26 WT [5] = target: T1, Tnp26 WT; test: EMSA; remark: listed apart in the source

B1: Scrambled TIRR (dsDNA)
DNA 1: TTCGTGACTACATCGATCTAGGCTAGCTAGTCAGCTGATCGACTAGCGAT
DNA 2: ATCGCTAGTCGATCAGCTGACTAGCTAGCCTAGATCGATGTAGTCACGAA
binding result (Tnp26 WT [1]): no binding | binding result (Tnp26 W50A): no binding | binding result (Tnp26 R49A): no binding | binding result (Tnp26 F4A): no binding | binding result (Tnp26 F9A): no binding | binding result (Tnp26 1-56 [2]): no binding

B2: TIRL 50mer (dsDNA)
DNA 1: TCAGATCGATGGCACTGTTGCAAATAGTCGGTGGTGATAAACTTATCATC
DNA 2: GATGATAAGTTTATCACCACCGACTATTTGCAACAGTGCCATCGATCTGA
binding result (Tnp26 W50A): no binding | binding result (Tnp26 R49A): no binding | binding result (Tnp26 F4A): no binding | binding result (Tnp26 F9A): no binding | Kd (Tnp26 Y54A): 0.802 µM

B3: TIRR 50mer (dsDNA)
DNA 1: TCAGATCGATGGCACTGTTGCAAAGTTAGCGATGAGGCAGCCTTTTGTCT
DNA 2: AGACAAAAGGCTGCCTCATCGCTAACTTTGCAACAGTGCCATCGATCTGA
binding result (Tnp26 W50A): no binding | binding result (Tnp26 R49A): no binding | binding result (Tnp26 F4A): no binding | binding result (Tnp26 F9A): no binding | Kd (Tnp26 WT [3]): 0.394 µM

B4: TIRR 10G>T (dsDNA)
DNA 1: B3 DNA 1 with G20T
DNA 2: B3 DNA 2 with C31A
Kd (Tnp26 WT [3]): 0.872 µM

B5: TIRR 7G>T (dsDNA)
DNA 1: B3 DNA 1 with G17T
DNA 2: B3 DNA 2 with C34A
binding result (Tnp26 1-56 [4]): no binding | binding result (Tnp26 WT [1]): no binding

B6: TIRR 1G>T 2G>T (dsDNA)
DNA 1: B3 DNA 1 with G11T, G12T
DNA 2: B3 DNA 2 with C39A, C40A
Kd (Tnp26 WT [3]): 0.24 µM

B7: TIRR 25mer (dsDNA)
DNA 1: TCAGATCGATGGCACTGTTGCAAAG
DNA 2: CTTTGCAACAGTGCCATCGATCTGA
binding result (Tnp26 WT [5]): no binding
